Reference: US7476386B1 (priority 1997, dated 2009)
Ends that are not written are not given here. * marks the point of attachment. Palmitoyl = CCCCCCCCCCCCCCCC(=O)*

What was measured:
Type in all cases: physicochemical
[1] = Test of uniformity of concentration on batch CK9; conditions: batch CK9, 15 random samples, each injected three times
Experimental: According to the Pharmacopoeia, powders for parenteral use are subjected to a requirement of uniformity of concentration. The test must be performed on 10 random samples, which are analysed individually for the active ingredient using an appropriate analytical method. The preparation satisfies the test if the concentration of each sample is between 85 and 115% of the average concentration.
The test was performed on 15 random samples, taken up in solution and diluted in 80% acetic acid according to a standardized operational procedure, so as always to inject an identical proportion of about 15 μg, defined during preparation of the calibration curve. Each sample was injected three times, the concentration of each active ingredient corresponding to the average of the three values obtained.

[2] = Sterilizing filtration (0.22 μm) of lipopeptide mixtures; conditions: for yield (%): batch CK9, 20 mg/ml in 80% acetic acid, filtered 0.22 μm, range reflects precision of determination
Experimental: The solutions obtained were subjected to ultrasonic action to encourage the dispersion of the aggregates, mixed to give a final volume of 5.5 ml, and the mixture was again subjected to ultrasonic action, then diluted with 9.5 ml of water to obtain a final concentration of about 8% in acetic acid (AcOH), compatible with a good quality freeze-drying. This solution, after a final period in the ultrasonic bath, was filtered over Millipore Millex GV SLGV 0130S filters (0.22 μm).
An ultrasonic step was used at each stage to ensure effective dispersion of the aggregates.
The solutions were mixed, then filtered over Millex GV SLGV 0130S filters (0.22 μm). […] The receiver vessels and the filter were then rinsed with water, in sufficient quantity to give a final acetic acid concentration of 8% (final volume 15 ml as before), so as to ensure the quality of the freeze-drying step.
The procedure used was the same as for the previous batch, apart from the quantities. The solution of the peptide (20 mg/ml in 80% acetic acid) was filtered in 4 portions, changing the filter before its saturation, using identical membranes (Durapore STERIVEX GV 0.22 μm sterile units (Millipore)), then made up with the water used for rinsing the filters and for dilution. The final volume was 1516 ml (including 154 ml of acetic acid: 10% in final solution). The portion volume was 1.3 ml per dose. The apportioned doses were freeze-dried, and analysed using a validated HPLC determination method.
This set of peptides was synthesized as described in the previous examples.
This set of peptides was synthesized as described in example 1. The mixture of solutions was performed on a sample of 5 mg of each peptide previously dissolved at a concentration of 20 mg/ml in 80% acetic acid then mixed in the following order: 1: LSA3 NRI; 2: LSA3 NRII; 3: LSA3 CT1; 4 LSA3 RE.

[3] = Solubility of the lipopeptides in pure water
[4] = batch CK2, simple mixture diluted to about 8% acetic acid, 0.22 μm filter
[5] = batch CK3, each lipopeptide in 80% acetic acid, mixed then filtered 0.22 μm

Substance	Observed deviation [1]	Filtration yield (%) after mixing [2, 4]	Filtration yield (%) after mixing [2, 5]	yield (%) [2]	appearance of the solution in pure water [3]
EWRFDSRLAFHHVARELHPEYFKNK(Pam)-NH2 (EWRFDSRLAFHHVARELHPEYFKNK(Palmitoyl)-NH2; N-terminus assumed; SMILES CCCCCCCCCCCCCCCC(=O)NCCCC[C@H](NC(=O)[C@H](CC(N)=O)NC(=O)[C@H](CCCCN)NC(=O)[C@H](Cc1ccccc1)NC(=O)[C@H](Cc1ccc(O)cc1)NC(=O)[C@H](CCC(=O)O)NC(=O)[C@@H]1CCCN1C(=O)[C@H](Cc1c[nH]cn1)NC(=O)[C@H](CC(C)C)NC(=O)[C@H](CCC(=O)O)NC(=O)[C@H](CCCNC(=N)N)NC(=O)[C@H](C)NC(=O)[C@@H](NC(=O)[C@H](Cc1c[nH]cn1)NC(=O)[C@H](Cc1c[nH]cn1)NC(=O)[C@H](Cc1ccccc1)NC(=O)[C@H](C)NC(=O)[C@H](CC(C)C)NC(=O)[C@H](CCCNC(=N)N)NC(=O)[C@H](CO)NC(=O)[C@H](CC(=O)O)NC(=O)[C@H](Cc1ccccc1)NC(=O)[C@H](CCCNC(=N)N)NC(=O)[C@H](Cc1c[nH]c2ccccc12)NC(=O)[C@@H](N)CCC(=O)O)C(C)C)C(N)=O) [NEF 182]	5.84%	92%	quantitative	96.23-102.05%	–
TQGYFPDWQNYTPGPGVRYPLTFGWCYKLVPK(Pam)-NH2 (TQGYFPDWQNYTPGPGVRYPLTFGWCYKLVPK(Palmitoyl)-NH2; N-terminus assumed; SMILES CCCCCCCCCCCCCCCC(=O)NCCCC[C@H](NC(=O)[C@@H]1CCCN1C(=O)[C@@H](NC(=O)[C@H](CC(C)C)NC(=O)[C@H](CCCCN)NC(=O)[C@H](Cc1ccc(O)cc1)NC(=O)[C@H](CS)NC(=O)[C@H](Cc1c[nH]c2ccccc12)NC(=O)CNC(=O)[C@H](Cc1ccccc1)NC(=O)[C@@H](NC(=O)[C@H](CC(C)C)NC(=O)[C@@H]1CCCN1C(=O)[C@H](Cc1ccc(O)cc1)NC(=O)[C@H](CCCNC(=N)N)NC(=O)[C@@H](NC(=O)CNC(=O)[C@@H]1CCCN1C(=O)CNC(=O)[C@@H]1CCCN1C(=O)[C@@H](NC(=O)[C@H](Cc1ccc(O)cc1)NC(=O)[C@H](CC(N)=O)NC(=O)[C@H](CCC(N)=O)NC(=O)[C@H](Cc1c[nH]c2ccccc12)NC(=O)[C@H](CC(=O)O)NC(=O)[C@@H]1CCCN1C(=O)[C@H](Cc1ccccc1)NC(=O)[C@H](Cc1ccc(O)cc1)NC(=O)CNC(=O)[C@H](CCC(N)=O)NC(=O)[C@@H](N)[C@@H](C)O)[C@@H](C)O)C(C)C)[C@@H](C)O)C(C)C)C(N)=O) [NEF 117]	4.67%	81%	quantitative	109.08-116.72%	slightly opalescent solution
TRPNNNTRKSIHIGPGRAFYATGEIIGDIRQAHK(Palmitoyl)-NH2 [ENV]	14.95%	95%	quantitative	104.71-110.89%	–
VGFPVTPQVPLRPMTYKAAVDLSHFLKEKGGLK(Pam)-NH2 [NEF 66]	4.23%	95%	quantitative	89.14-94.6%	–
